Data from patent US20090227489A1, “STAT3 Agonists and Antagonists and Therapeutic Uses Thereof” (Johns Hopkins University, priority 2000, published 2009).

Legend:
[1] = test system: B16 cells; assay: Apoptosis assay, Annexin V-PE staining and FACS; type: cell-based, murine; conditions: 48 hours post transfection; empty vector 25%
Method: Apoptosis assay. B16 cells transfected with pIRES-EGFP or pIRES-Stat3β were washed with CellScrub™ buffer (Gene Therapy Systems, San Diego, Calif.) 24 h after transfection. Apoptosis of transiently-transfected B16 cells was analyzed after staining with Annexin V-PE by two-color flow cytometry. Apoptosis of non-transfected tumor cells in the upper chambers of Transwell units was analyzed after staining with Annexin V-PE and VIA-PROBE™ 7-AAD (Pharmingen, San Diego, Calif.) by two-color flow cytometry.
This G0/G1 phase arrest was observed as early as 24 hourspost transfection. At 48 hours post transfection with Stat3β vector, Annexin V-PE staining followed by FACS analysis to detect apoptotic activity was performed with transfected B16 cells. A high level of apoptosis in Stat3β transfected cells (75%) relative to empty vector transfected cells (25%) was observed, as shown in FIG. 2C. Increased levels of apoptosis as a result of Stat3β transfection was confirmed by confocal laser scanning microscope analysis using rhodamine-labelled TUNEL assay.

[2] = test system: TRAIL; assay: RNase protection assay with multi-template probes for regulators of apoptosis; type: cell-based, murine; conditions: B16 cells, thirty hours after transfection
Method: FIG. 4. Stat3β overexpression in B16 cells results in induction of TRAIL mRNA expression. Ten μg of total cellular RNAs isolated from B16 (lanes 1 and 4), and B16 transfected with either pIRES-EGFP (lanes 2 and 5) or pIRES-Stat3β (lanes 3 and 6) were hybridized with each multiple probe before digestion with RNase. Separation of protected fragments was achieved by gel electrophoresis. Fragment assignment was determined by migration relative to internal standards. Induction of TRAIL RNA was confirmed by two additional RPA analyses.
RNA isolation and RNase protection assay. Total RNA was isolated from 5.0×10^6 cells by TRIzol reagent (Gibco BRL, Grand Island, N.Y.). RNase protection assays (RPA) were carried out using the PharMingen Riboquant mAPO-3 (TRAIL, FasL, CD95, and other death receptor associated genes) and mAPO-2 (Bcl-2 family members) multi-probe templates according to the manufacturer's protocol (PharMingen, San Diego, Calif.). Briefly, the multi-probe template was synthesized by in vitro transcription with incorporation of [^32P]-α UTP and purified on a G50 Sephadex column (5-Prime to 3-Prime, Boulder, Colo.). Specific activity was quantitated in a Beckman LS 6500 scintillation counter (Beckman, Schaumburg, Ill.). […] Protected RNA fragments were separated on a 5% polyacrylamide denaturing gel and quantified with Image Quant software (Molecular Dynamics, Sunnyvale, Calif.). […]

[3] = test system: VEGF; assay: Expression of the endogeneous VEGF gene in B16 tumor cells (Western blot); type: cell-based, murine; conditions: ASO at 100 nM, 200 nM, or 300 nM
Method: FIG. 13. Inhibition of Stat3 signaling in tumor cells reduces the expression of the endogeneous VEGF gene. B16 tumor cells were transfected with either: A. Stat3β; or B. Stat3 anti-sense oligonucleotides (ASO) at 100 nM, 200 nM, or 300 nM.
A plasmid construct containing the luciferase cDNA in the absence of the VEGF promoter was also transfected into 3T3 fibroblasts. Both of B16 and SCK tumor cells harbor constitutively activated Stat3. In the absence of Stat3β, VEGF promoter activity was readily detectable in both tumor cells as indicated by the high expression levels of luciferase protein. […] The inhibitory effect of Stat3β on the transcriptional activity of the VEGF promoter was also observed in the tumor cells transfected with Stat3 anti-sense oligonucleotides (FIG. 12A-B). It was also shown that blocking Stat3 signaling in tumor cells inhibits the expression of the endogeneous VEGF gene. B16 tumor cells were transiently transfected with Stat3β and the expression of endogeneous VEGF gene was determined at the RNA and protein levels.

[4] = test system: B16 tumors; assay: Stat3β gene therapy of established B16 tumors in mice; type: in vivo; conditions: for tumor growth: ten to fifteen percent of tumor cells transfected in vivo
Method: Mice. Six- to eight-week old female C57/B6 mice were obtained from the National Cancer Institute (Frederick, Md.). Cohorts of 3-5 mice per group were used for these experiments. To induce tumor, mice were shaved on the left flank and injected s.c. with 5×10^5 of B16 cells in 100 μl of PBS. Gene therapy with Stat3β of established B16 tumors was described previously [Niu, 1999 #72].
Antibody staining of iNOS in B16 tumors. 3 μm paraffin sections were deparaffinized and endogenous peroxidase was blocked with 3% aqueous hydrogen peroxide. To minimize non-specific binding, the sections were incubated for 20 min in normal goat serum in PBS, followed by overnight incubation at 4° C. with rabbit anti-iNOS polyclonal antibody (Transduction Laboratories). After washing with PBS, sections were incubated for 2 min with diaminobenzidine tetrahydrochloride, rinsed with tap water and counterstained with modified Mayer's hematoxylin. Sections were dehydrated, cleared and mounted. Peritoneal macrophages and neutrophils.
Tissue sections from control vector-treated and Stat3β-treated tumors were stained with H&E and anti-iNOS antibodies.

[5] = test system: VEGF; assay: VEGF expression and Stat3 activity in v-Src-transformed NIH3T3 fibroblasts; type: cell-based
Excerpt: FIG. 10A-B. Transfection of NIH3T3-Src cells with either: A. Stat3β expression vector; or B. Stat3 anti-sense oligos, results in reduced levels of VEGF protein as shown by Western blot. Src tyrosine kinase-mediated VEGF upregulation requires Stat3. Src tyrosine activity is known to upregulate VEGF expression. In Src-transformed NIH3T3 cells, VEGF expression is high.
Src tyrosine kinase activity upregulates VEGF expression. […] NIH3T3 fibroblasts transformed by v-Src were transiently transfected with a dominant-negative variant of Stat3, Stat3β. The transfection efficiency was approximately 40% based on the number of cells that were fluorescent due to the presence of GFP. […] Forty-eight hours later, VEGF expression in v-Src-NIH3T3 fibroblasts with or without Stat3β expression was compared at both RNA and protein levels. […] Anti-sense oligonucleotides against Stat3 as well as control oligonucleotides were also transfected into v-Src-NIH3T3 cells.

Stat3 DNA binding activity (EMSA) ([5]; v-Src NIH3T3): loss of Stat3 DNA binding activity
B1: Stat3β: dominant-negative Stat3 variant, truncated form lacking the transactivation domain; delivered by the pIRES-Stat3β expression vector (protein)
chain: AQWNQLQQLDTRYLEQLHQLYSDSFPMELRQFLAPWIESQDWAYAASKESHATLVFHNLLGEIDQQYSRFLQESNVLYQHNLRRIKQFLQSRYLEKPMEIARIVARCLWEESRLLQTAATAAQQGGQANHPTAAVVTEKQQMLEQHLQDVRKRVQDLEQKMKVVENLQDDFDFNYKTLKSQGDMQDLNGNNQSVTRQKMQQLEQMLTALDQMRRSIVSELAGLLSAMEYVQKTLTDEELADWKRRQQIACIGGPPNICLDRLENWITSLAESQLQTRQQIKKLEELQQKVSYKGDPIVQHRPMLEERIVELFRNLMKSAFVVERQPCMPMHPDRPLVIKTGVQFTTKVRLLVKFPELNYQLKIKVCIDKDSGDVAALRGSRKFNILGTNTKVMNMEESNNGSLSAEFKHLTLREQRCGNGGRANCDASLIVTEELHLITFETEVYHQGLKIDLETHSLPVVVISNICQMPNAWASILWYNMLTNNPKNVNFFTKPPIGTWDQVAEVLSWQFSSTTKRGLSIEQLTTLAEKLLGPGVNYSGCQITWAKFCKENMAGKGFSFWVWLDNIIDLVKKYILALWNEGYIMGFISKERERAILSTKPPGTFLLRFSESSKEGGVTFTWVEKDISGKTQIQSVEPYTKQQLNNMSFAEIIMGYKIMDATNILVSPLVYLYPDIPKEEAFGKYCRPESQEHPEADPGAAPYLKTKFICVTFIDAVWK
level of apoptosis [1]: 75% | TRAIL RNA expression [2]: induction of TRAIL RNA expression | expression of the endogeneous VEGF gene [3]: downregulates expression of the endogeneous VEGF gene | apoptosis of tumor cells in vivo ([4]; B16 tumors): massive apoptosis of B16 tumor cells | tumor growth ([4]; B16 tumors): complete regression of tumors | tumor growth ([4]; B16 tumors, listed as Stat30): inhibition of tumor growth and tumor regression | infiltration of inflammatory cells (neutrophils, macrophages, T cells) ([4]; H&E staining, vs control vector-treated tumors): dramatic increase in number of inflammatory cells | iNOS expression in tumor-infiltrating macrophages ([4]; anti-iNOS antibody staining): induction of iNOS gene expression in the tumor-infiltrating macrophages | VEGF expression ([5]; v-Src NIH3T3, forty-eight hours): inhibits VEGF
